Data on three molecules can be found in paper PMC6160412, “Structural insights into modulation and selectivity of transsynaptic neurexin–LRRTM interaction” (Nature Communications, 2018).

Common to all, as to details: both partners purified
The target in experiment [1] is T1, human LRRTM2 LRR domain, wild type (human, UniProt O43300 34-371).
T1 construct: signal peptide in the construct; human LRRTM2 LRR domain, residues 1-371 cloned (residues 34-371 are named for the crystallised protein); Secreted with its own signal peptide; the mature protein probably begins at residue 34, as in the crystallised protein; also called LRRTM2^WT; hLRRTM2; source: Expi293F, transiently expressed, purified from culture medium (Ni-NTA, SEC)
T1 sequence (looked up): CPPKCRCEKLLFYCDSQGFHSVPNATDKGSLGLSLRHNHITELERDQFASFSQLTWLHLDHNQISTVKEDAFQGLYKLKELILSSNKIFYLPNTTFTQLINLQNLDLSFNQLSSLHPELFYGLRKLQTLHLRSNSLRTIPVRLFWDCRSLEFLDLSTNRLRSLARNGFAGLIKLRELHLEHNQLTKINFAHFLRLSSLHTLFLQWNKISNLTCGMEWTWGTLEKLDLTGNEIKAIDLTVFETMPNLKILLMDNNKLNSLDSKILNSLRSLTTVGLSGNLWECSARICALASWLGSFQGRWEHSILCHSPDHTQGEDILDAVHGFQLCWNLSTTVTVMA
Description: ITC; MicroCal Auto-iTC, 25 °C; LRRTM2 (15 µM) in the cell, Nrxn1β (200 µM) injected; 20 mM Hepes-NaOH pH 7.5, 150 mM NaCl, 2 mM CaCl2, 0.005% Tween-20, no BSA; one-site model. For orientation: In ITC the heat of successive injections is recorded.

For experiment [2], the target named is T2, human LRRTM2 LRR domain, D352A mutant (human, UniProt O43300 34-371, D352A).
T2 construct: signal peptide in the construct; human LRRTM2 LRR domain, residues 1-371 cloned, with D352A; also called LRRTM2 D352A; source: Expi293F, transiently expressed, purified from culture medium (Ni-NTA, SEC)
T2 sequence (looked up): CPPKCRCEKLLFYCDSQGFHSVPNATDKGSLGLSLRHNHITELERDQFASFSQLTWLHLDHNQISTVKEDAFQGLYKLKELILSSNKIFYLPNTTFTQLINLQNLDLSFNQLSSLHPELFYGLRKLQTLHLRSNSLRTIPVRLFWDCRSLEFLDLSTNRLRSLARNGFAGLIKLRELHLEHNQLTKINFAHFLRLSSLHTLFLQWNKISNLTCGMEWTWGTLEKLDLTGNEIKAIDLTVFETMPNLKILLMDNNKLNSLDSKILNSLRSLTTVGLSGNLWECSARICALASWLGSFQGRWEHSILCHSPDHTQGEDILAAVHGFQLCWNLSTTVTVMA
Description: SPR; Biacore T200; wild-type or mutant LRRTM immobilised on a CM5 chip by amine coupling; Nrxn1β as analyte in two-fold dilutions from 40 µM (from 160 µM for +S4 and R206A); 25 °C; 20 mM Hepes-NaOH pH 7.5, 150 mM NaCl, 2 mM CaCl2, 0.005% Tween-20, 0.5 g/L BSA; equilibrium KD. Background: SPR reads the build-up and loss of mass on a sensor chip optically.

In experiment [3] the target is T1, human LRRTM2 LRR domain, wild type. The description is as above.
In experiment [4] the target is T3, human LRRTM2 LRR domain, H355A mutant (human, UniProt O43300 34-371, H355A).
T3 construct: signal peptide in the construct; human LRRTM2 LRR domain, residues 1-371 cloned, with H355A; Neuraminidase was added before crystallization to trim N-linked glycans; also called LRRTM2^H355A; hLRRTM2^H355A; source: Expi293F, transiently expressed, purified from culture medium (Ni-NTA, SEC); for crystallization coexpressed with Nrxn1β (–S4) LNS and separated by SEC
T3 sequence (looked up): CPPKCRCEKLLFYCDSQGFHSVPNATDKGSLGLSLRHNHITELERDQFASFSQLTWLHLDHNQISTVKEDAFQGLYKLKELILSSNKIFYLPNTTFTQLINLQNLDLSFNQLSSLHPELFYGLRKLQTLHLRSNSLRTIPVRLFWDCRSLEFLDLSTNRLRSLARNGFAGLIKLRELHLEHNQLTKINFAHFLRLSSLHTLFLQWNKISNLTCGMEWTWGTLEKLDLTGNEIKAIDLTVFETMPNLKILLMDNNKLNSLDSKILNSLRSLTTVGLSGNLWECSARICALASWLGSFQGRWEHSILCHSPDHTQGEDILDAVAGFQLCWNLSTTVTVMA
The description is as above.

Experiment [5] deals with T4, human LRRTM2 LRR domain, F357Y mutant (human, UniProt O43300 34-371, F357Y).
T4 construct: signal peptide in the construct; human LRRTM2 LRR domain, residues 1-371 cloned, with F357Y; also called LRRTM2^F357Y; source: Expi293F, transiently expressed, purified from culture medium (Ni-NTA, SEC)
T4 sequence (looked up): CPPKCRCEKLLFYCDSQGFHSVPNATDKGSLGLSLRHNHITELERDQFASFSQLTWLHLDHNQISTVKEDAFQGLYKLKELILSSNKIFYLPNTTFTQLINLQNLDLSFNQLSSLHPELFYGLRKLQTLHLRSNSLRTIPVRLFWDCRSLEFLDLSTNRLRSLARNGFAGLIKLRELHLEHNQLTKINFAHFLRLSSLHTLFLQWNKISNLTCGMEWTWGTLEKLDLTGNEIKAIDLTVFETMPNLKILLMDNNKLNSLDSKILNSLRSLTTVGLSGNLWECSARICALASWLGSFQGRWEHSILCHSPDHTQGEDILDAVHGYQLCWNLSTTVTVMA
The experiment is described as above.

A value given as a limit tells only on which side of the number the result lay.

B1: human Nrxn1β LNS domain (–S4), wild type (domain or fragment)
chain: not shown
notes: human neurexin-1β LNS domain, splice variant without the S4 insert, residues 86-266; numbers count on: human Nrxn1β (–S4) (NM_001330092.1); also called Nrxn1β (–S4); Nrxin1β (–S4); source: Expi293F, transiently expressed, purified from culture medium (Ni-NTA, SEC); for crystallization coexpressed with LRRTM2 LRR and separated by SEC
As to B1, the Kd (in general, the constant that tells how readily two partners part at equilibrium) in experiment [1] was determined as 4.2 µM; in experiment [3], 4 µM; in experiment [4], 4.3 µM. Moreover, the “fold decrease in affinity against wild-type LRRTM2” value in experiment [2] was above 9 fold; in experiment [5] it was around 5 fold.

B2: human Nrxn1β LNS domain with the S4 insert (+S4) (domain or fragment)
chain: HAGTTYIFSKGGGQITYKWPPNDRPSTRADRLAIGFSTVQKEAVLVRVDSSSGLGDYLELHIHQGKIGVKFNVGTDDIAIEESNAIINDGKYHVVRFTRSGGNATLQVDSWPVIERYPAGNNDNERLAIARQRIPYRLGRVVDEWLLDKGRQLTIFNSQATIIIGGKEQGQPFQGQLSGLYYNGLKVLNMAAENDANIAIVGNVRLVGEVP
modifications: Ca2+-bound (2 mM CaCl2). S4 insert is entry residues 205-234.
In the case of B2, in experiment [3], the Kd was above 80 µM.

B3: human Nrxn1β LNS domain (–S4), R206A mutant (domain or fragment)
chain: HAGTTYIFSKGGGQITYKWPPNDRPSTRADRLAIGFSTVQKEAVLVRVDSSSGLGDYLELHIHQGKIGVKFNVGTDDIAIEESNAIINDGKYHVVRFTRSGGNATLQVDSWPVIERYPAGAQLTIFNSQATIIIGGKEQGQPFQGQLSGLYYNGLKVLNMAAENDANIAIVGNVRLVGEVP
modifications: Ca2+-bound (2 mM CaCl2). Entry P58400 carries the S4 insert at 205-234, so paper (-S4) residues 205-266 are entry 235-296 (R206 = R236).
B3 had a Kd in experiment [3] above 160 µM.
